# Results published in patent publication US20150010572A1 (SAMSUNG ELECTRONICS, published 2015).
# T1: Ang-2 (R&D systems; 623-AN-025/CF) (human, UniProt O15123 19-496)
# T1 sequence: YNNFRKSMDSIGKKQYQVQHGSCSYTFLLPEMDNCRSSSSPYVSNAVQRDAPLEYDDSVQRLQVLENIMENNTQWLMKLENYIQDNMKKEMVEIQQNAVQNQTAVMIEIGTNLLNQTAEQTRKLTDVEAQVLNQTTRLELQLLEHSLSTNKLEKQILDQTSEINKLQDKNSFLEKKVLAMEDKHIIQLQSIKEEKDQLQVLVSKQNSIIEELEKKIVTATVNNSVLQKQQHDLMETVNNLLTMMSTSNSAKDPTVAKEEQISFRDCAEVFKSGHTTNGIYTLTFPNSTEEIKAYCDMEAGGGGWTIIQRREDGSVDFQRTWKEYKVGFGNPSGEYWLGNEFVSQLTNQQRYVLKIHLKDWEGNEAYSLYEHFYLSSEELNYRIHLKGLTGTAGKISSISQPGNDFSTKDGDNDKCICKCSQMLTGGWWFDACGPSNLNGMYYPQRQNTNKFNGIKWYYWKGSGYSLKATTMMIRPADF
# T2: recombinant hAng-2 (C-His, R&D Systems) (human, UniProt O15123 19-496)
# T2 construct: Bought protein; also called human Ang-2 protein; not shown: C-terminal His tag
# T2 sequence: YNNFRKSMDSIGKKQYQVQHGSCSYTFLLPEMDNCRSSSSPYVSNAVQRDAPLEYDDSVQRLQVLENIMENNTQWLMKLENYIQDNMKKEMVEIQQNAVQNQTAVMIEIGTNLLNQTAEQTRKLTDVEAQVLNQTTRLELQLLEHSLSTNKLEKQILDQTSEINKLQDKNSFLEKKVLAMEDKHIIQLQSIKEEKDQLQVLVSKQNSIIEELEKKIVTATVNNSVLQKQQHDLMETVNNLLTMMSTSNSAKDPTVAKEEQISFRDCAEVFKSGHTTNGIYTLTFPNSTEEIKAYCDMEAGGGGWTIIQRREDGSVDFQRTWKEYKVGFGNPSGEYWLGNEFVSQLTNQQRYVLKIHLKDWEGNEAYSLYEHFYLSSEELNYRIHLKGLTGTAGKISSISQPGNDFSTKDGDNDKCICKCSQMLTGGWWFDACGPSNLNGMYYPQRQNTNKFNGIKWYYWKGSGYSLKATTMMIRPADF
# B1: SAIT-Ang-2-AB-m8B3 (antibody, V domains shown)
# VH: DVQLQESGPGLVKPSQSLSLSCTVTGYSIASDYAWNWIRQFPGNKVEWMGYINYRGNTDYNPSLKSRSSINRDTSKNQFFLQLNSVTTGDTATYYCARGNFEGAMDYWGQGTSVTVSS
# VL: TIVMTQTPKFLLVSAGDRITITCKASQSVSNDVAWYQQKPGQSPKLLIYYASNRYPGVPDRFTGSGYGTDFTFTISTVQAEDLAVYFCQQDYTSPWTFGGGTELEIK
# notes: also called KCLRF-BP-00293
# B2: SAIT-Ang-2-AB-m2E7 (antibody, V domains shown)
# VH: DLQLQESGPGLVKPSQSLSLTCTVTGYSITSDYAWNWIRQFPGNKLEWMGYISYSGSTSYNPSLKSRISITRDTSKNQFFLQLNSLTTEDTATYYCARGDYGNYVGPMDYWGQGTSVTVSS
# VL: SIVMTQTPKFLLVSAGDRVTITCKASQSVSNDVAWYRQKPGQSPKLLIYYASNRYTGVPDRFTGSGYGTDFTFTISTVQAEDLAVYFCQQDYSSPLTFGARTKLELK
# notes: also called KCLRF-BP-00294
# How the values were obtained:
# [1] = molecular target: T1, Ang-2 (R&D systems; 623-AN-025/CF); test: cell-based or functional assay
# [2] = molecular target: T2, recombinant hAng-2 (C-His, R&D Systems); test: SPR, BIAcore T100; hAng-2 (C-His) captured by anti-His antibody on CM5 chip, antibody flowed
# Procedure: The binding affinities of the above 3 kinds of antibodies to human Ang-2 protein were measured by a SPR technology using a BIAcore T100 (GE Healthcare). The SPR technology uses refractive index change of light which passes a sensor chip according to the state of materials coated onto the sensor chip, and if an antigen or an antibody is flowed onto a chip coated with the antigen or antibody, it causes changes in refractive index due to their binding and Kd values are thus calculated from the measured values.
# First, anti-His antibody was immobilized on a CM5 sensor chip (GE healthcare) up to 8,000 RU levels using a pH 5.0 acetate solution and an amine coupling kit (GE Healthcare). A recombinant hAng-2 (C-His, R&D Systems) protein was flowed onto the chip to be captured at 100 to 200 RU levels.
Binder,Ang-2-depedent Cell Adhesion Degree (%) [1],Kd [2]
B1,23.6%,0.0086 nM
B2,28.1%,30.6 nM
